This note sets out measurements from US7304127.

The target in the experiment is HIV-1LAI envelope gp120 labeled with radioactive iodine (HIV-1 LAI), P03377. As to the kind of experiment: 125I-gp120, peptide array.

In the case of GNFLCKAVHVIYTVNLYS (modifications not checked) [CXCR4 105-122], the counts minus background (counts per 20 min) was found to be 231.

With DAVANWYFGNFLCKAVHV (modifications not checked) [CXCR4 97-114], the counts minus background (counts per 20 min) stood at 112.

For MVGLILPGIVILSCYCII (modifications not checked) [CXCR4 205-222], the counts minus background (counts per 20 min) worked out at 167.

For the molecule NWYFGNFLCKAVHVIYTV (modifications not checked) [CXCR4 101-118], the counts minus background (counts per 20 min) was found to be 96.

For the molecule LRSMTDKYRLHLSVADLL (modifications not checked) [CXCR4 69-86], the counts minus background (counts per 20 min) came out at 160.

Take YVGVWIPALLLTIPDFIF (modifications not checked) [CXCR4 157-174]: the counts minus background (counts per 20 min) stood at 124.

On to YQKKLRSMTDKYRLHLSV (modifications not checked) [CXCR4 65-82], for which the counts minus background (counts per 20 min) turned out to be 99.

Regarding WIPALLLTIPDFIFANVS (modifications not checked) [CXCR4 161-178], the counts minus background (counts per 20 min) was found to be 182.

With FVGNMLVILILINCKRLK (modifications not checked) [CCR5 45-62], the counts minus background (counts per 20 min) was determined as 62.

For VVFQFQHIMVGLILPGIV (modifications not checked) [CXCR4 197-214], the counts minus background (counts per 20 min) worked out at 589.

As for ATNSQRPRKLLAEKVVYV (modifications not checked) [CXCR4 141-158], the counts minus background (counts per 20 min) was 78.

As to RLHLSVADLLFVITLPFW (modifications not checked) [CXCR4 77-94], the counts minus background (counts per 20 min) amounted to 136.

Consider ICDRFYPNDLWVVVFQFQ (modifications not checked) [CXCR4 185-202], for which the counts minus background (counts per 20 min) came to 306.

Take VSEADDRYICDRFYPNDL (modifications not checked) [CXCR4 177-194]: the counts minus background (counts per 20 min) worked out at 157.

On to MDYQVSSPIYDINYYTSE (modifications not checked) [CCR5 1-18], for which the counts minus background (counts per 20 min) worked out at 735.

As for FIFGFVGNMLVILILINC (modifications not checked) [CCR5 41-58], the counts minus background (counts per 20 min) turned out to be 343.

On to TVNLYSSVLILAFISLDR (modifications not checked) [CXCR4 117-134], for which the counts minus background (counts per 20 min) stood at 242.

Take FISLDRYLAIVHATNSQR (modifications not checked) [CXCR4 129-146]: the counts minus background (counts per 20 min) amounted to 91.

For LVMGYQKKLRSMTDKYRL (modifications not checked) [CXCR4 61-78], the counts minus background (counts per 20 min) turned out to be 105.

In the case of YSSVLILAFISLDRYLAI (modifications not checked) [CXCR4 121-138], the counts minus background (counts per 20 min) amounted to 157.

Turning to DRYLAIVHATNSQRPRKL (modifications not checked) [CXCR4 133-150], the counts minus background (counts per 20 min) stood at 168.

Regarding IPDFIFANVSEADDRYIC (modifications not checked) [CXCR4 169-186], the counts minus background (counts per 20 min) came out at 438.

GLVILVMGYQKKLRSMTD (modifications not checked) [CXCR4 57-74]: the counts minus background (counts per 20 min) was determined as 157.

DLWVVVFQFQHIMVGLIL (modifications not checked) [CXCR4 193-210]: the counts minus background (counts per 20 min) stood at 422.

In the case of FWAVDAVANWYFGNFLCK (modifications not checked) [CXCR4 93-110], the counts minus background (counts per 20 min) turned out to be 66.

Take SVADLLFVITLPFWAVDA (modifications not checked) [CXCR4 81-98]: the counts minus background (counts per 20 min) was determined as 253.

LLLTIPDFIFANVSEADD (modifications not checked) [CXCR4 165-182]: the counts minus background (counts per 20 min) amounted to 1010.

Regarding ITLPFWAVDAVANWYFGN (modifications not checked) [CXCR4 89-106], the counts minus background (counts per 20 min) is 130.

For the molecule IFANVSEADDRYICDRFY (modifications not checked) [CXCR4 173-190], the counts minus background (counts per 20 min) came to 267.

For the molecule EKVVYVGVWIPALLLTIP (modifications not checked) [CXCR4 153-170], the counts minus background (counts per 20 min) was found to be 147.

With AIVHATNSQRPRKLLAEK (modifications not checked) [CXCR4 137-154], the counts minus background (counts per 20 min) is 73.

With YSLVFIFGFVGNMLVILI (modifications not checked) [CCR5 37-54], the counts minus background (counts per 20 min) is 347.

With LILAFISLDRYLAIVHAT (modifications not checked) [CXCR4 125-142], the counts minus background (counts per 20 min) turned out to be 107.

QRPRKLLAEKVVYVGVWI (modifications not checked) [CXCR4 145-162]: the counts minus background (counts per 20 min) was determined as 127.

On to TDKYRLHLSVADLLFVIT (modifications not checked) [CXCR4 73-90], for which the counts minus background (counts per 20 min) amounted to 92.

As to HVIYTVNLYSSVLILAFI (modifications not checked) [CXCR4 113-130], the counts minus background (counts per 20 min) worked out at 118.

On to CKAVHVIYTVNLYSSVLI (modifications not checked) [CXCR4 109-126], for which the counts minus background (counts per 20 min) is 243.

On to FYPNDLWVVVFQFQHIMV (modifications not checked) [CXCR4 189-206], for which the counts minus background (counts per 20 min) is 416.

As for MLVILILINCKRLKSMTD (modifications not checked) [CCR5 49-66], the counts minus background (counts per 20 min) was found to be 84.

Regarding LLFVITLPFWAVDAVANW (modifications not checked) [CXCR4 85-102], the counts minus background (counts per 20 min) stood at 63.

For DDRYICDRFYPNDLWVVV (modifications not checked) [CXCR4 181-198], the counts minus background (counts per 20 min) amounted to 125.

FQHIMVGLILPGIVILSC (modifications not checked) [CXCR4 201-218]: the counts minus background (counts per 20 min) amounted to 170.

Consider KLLAEKVVYVGVWIPALL (modifications not checked) [CXCR4 149-166], for which the counts minus background (counts per 20 min) came to 89.
